Laboratory results published in publication PMC12947862, “Oligomerization enables the selective targeting of an intrinsically disordered region by a small molecule” (Science Advances, 2026).

Tests used:
[1] = target: EPI-001; assay: intact MS; details: t = 24 hours (last time point); parent: est. 21; read off a plot
[2] = target: EPI-001; assay: 1H NMR chemical shift perturbation of EPI-001; details: 1 molar equivalent of the corresponding Tau-5* mutant; parent: est. -0.018; read off a plot
[3] = target: Cys518; assay: NMR; details: 5 °C, 20 mM sodium phosphate, no added salt stated, 3 mM TCEP, 0.05% (w/v) NaN3, Reduced free thiol, intrinsically disordered fragments, no ligand. Protein concentrations were 70 μM Nt C123, 300 μM Tau-5* C404 and 150 μM Ct C518.
[4] = target: Cys404 (UniProt position 406, …); assay: NMR; details: 5 °C, 20 mM sodium phosphate, no added salt stated, 3 mM TCEP, 0.05% (w/v) NaN3, Reduced free thiol, intrinsically disordered fragments, no ligand. Protein concentrations were 70 μM Nt C123, 300 μM Tau-5* C404 and 150 μM Ct C518.
[5] = target: the molecule itself; assay: dynamic light scattering; NR ADs in 20 mM sodium phosphate pH 7.4, 1 mM TCEP, 0.5% DMSO-d6, 5°C; percentage population of monomer and high-order species; 35 μM AR AD; with and without EPI-001
[6] = target: Cys123 (position 123, …); assay: NMR; details: 5 °C, 20 mM sodium phosphate, no added salt stated, 3 mM TCEP, 0.05% (w/v) NaN3, Reduced free thiol, intrinsically disordered fragments, no ligand. Protein concentrations were 70 μM Nt C123, 300 μM Tau-5* C404 and 150 μM Ct C518.

**Q.** How did the other: EPI-001 adduct (%) [1] turn out when “AR AD fragment transactivation unit 5 (Tau-5*; residues 330 to 448) (from UniProt P10275) A398P” was run?
**A.** The other: EPI-001 adduct (%) was 11%.

**Q.** What about the response [2] of the same molecule?
**A.** The response was -0.012 p.p.m.

**Q.** Which response [2] does the source give for “AR AD fragment transactivation unit 5 (Tau-5*; residues 330 to 448) (from UniProt P10275) C404Y” here?
**A.** Its response is -0.021 p.p.m.

**Q.** How did the response [2] turn out when “AR AD fragment transactivation unit 5 (Tau-5*; residues 330 to 448) (from UniProt P10275) L436P” was run?
**A.** Its response is -0.013 p.p.m.

**Q.** What does the source list for “AR AD fragment transactivation unit 5 (Tau-5*; residues 330 to 448) (from UniProt P10275) W433A; H434A; F437A”?
**A.** other: EPI-001 adduct (%) [1]: 9.3%; response [2]: -0.008 p.p.m.

**Q.** For “AR AD fragment transactivation unit 5 (Tau-5*; residues 330 to 448) (from UniProt P10275) G394A; S395A; G407A”, which other: EPI-001 adduct (%) [1] is on record?
**A.** Its other: EPI-001 adduct (%) is 26%.

**Q.** What about the response [2] of the same molecule?
**A.** Its response is -0.042 p.p.m.

**Q.** Which response [2] does the source give for “AR AD fragment transactivation unit 5 (Tau-5*; residues 330 to 448) (from UniProt P10275) G407A” here?
**A.** Its response is -0.024 p.p.m.

**Q.** “AR AD fragment transactivation unit 5 (Tau-5*; residues 330 to 448) (from UniProt P10275) noAro” was tested. Which response [2] did it give?
**A.** Its response is -0.003 p.p.m.

**Q.** Which other: EPI-001 adduct (%) [1] does the source give for “AR AD fragment transactivation unit 5 (Tau-5*; residues 330 to 448) (from UniProt P10275) Y393S; W397A; Y406S; H413A” here?
**A.** The other: EPI-001 adduct (%) was 2.5%.

**Q.** And the response [2]?
**A.** Its response is -0.006 p.p.m.

B1: Androgen receptor activation domain fragment Ct C518 (residues 441-558, 4G polyG, C448 deleted) (Homo sapiens; del448;del451-470) (protein)
chain: EGQLYGPGGGGEAGAVAPYGYTRPPQGLAGQESDFTAPDVWYPGGMVSRVPYPSPTCVKSEMGPWMDSYSGPYGDMRLETARDHVLPIDYYFPPQKT
**Q.** How did the pKa [3] turn out when B1 was run?
**A.** The pKa was 8.20 ± 0.08.

B2: Androgen receptor activation domain fragment Tau-5* C404 (residues 330-447, C448 deleted) (Homo sapiens; del448) (protein)
chain: AAGSSGTLELPSTLSLYKSGALDEAAAYQSRDYYNFPLALAGPPPPPPPPHPHARIKLENPLDYGSAWAAAAAQCRYGDLASLHGAGAAGPGSGSPSAAASSSWHTLFTAEEGQLYGP
**Q.** For B2, which pKa [4] is on record?
**A.** The pKa was 8.95 ± 0.05.

B3: mineralocorticoid receptor activation domain (MR AD) (domain or fragment, human (from the printed UniProt entry), UniProt P08235 1-602, looked up)
chain: METKGYHSLPEGLDMERRWGQVSQAVERSSLGPTERTDENNYMEIVNVSCVSGAIPNNSTQGSSKEKQELLPCLQQDNNRPGILTSDIKTELESKELSATVAESMGLYMDSVRDADYSYEQQNQQGSMSPAKIYQNVEQLVKFYKGNGHRPSTLSCVNTPLRSFMSDSGSSVNGGVMRAVVKSPIMCHEKSPSVCSPLNMTSSVCSPAGINSVSSTTASFGSFPVHSPITQGTPLTCSPNVENRGSRSHSPAHASNVGSPLSSPLSSMKSSISSPPSHCSVKSPVSSPNNVTLRSSVSSPANINNSRCSVSSPSNTNNRSTLSSPAASTVGSICSPVNNAFSYTASGTSAGSSTLRDVVPSPDTQEKGAQEVPFPKTEEVESAISNGVTGQLNIVQYIKPEPDGAFSSSCLGGNSKINSDSSFSVPIKQESTKHSCSGTSFKGNPTVNPFPFMDGSYFSFMDDKDYYSLSGILGPPVPGFDGNCEGSGFPVGIKQEPDDGSYYPEASIPSSAIVGVNSGGQSFHYRIGAQGTISLSRSARDQSFQHLSSFPPVNTLVESWKSHGDLSSRRSDGYPVLEYIPENVSSSTLRSVSTGSSRPSKI
notes: source: E. coli Rosetta (DE3), purified from inclusion bodies (HisTrap in urea, SEC); not shown: His tag, N-terminal, cleaved
**Q.** Does B3 bind [5]?
**A.** Result: binds

B4: Androgen receptor activation domain fragment Nt C123 (residues 1-151, C129S) (Homo sapiens; C129S) (protein)
chain: MEVQLGLGRVYPRPPSKTYRGAFQNLFQSVREVIQNPGPRHPEAASAAPPGASLLLLQQQQQQQQQQQQQQQQQQQQQETSPRQQQQQQGEDGSPQAHRRGPTGYLVLDEEQQPSQPQSALECHPERGSVPEPGAAVAASKGLPQQLPAPP
**Q.** How did the pKa [6] turn out when B4 was run?
**A.** Its pKa is 8.86 ± 0.03.

B5: glucocorticoid receptor activation domain (GR AD) (domain or fragment, human (from the printed UniProt entry), UniProt P04150 1-420, looked up)
chain: MDSKESLTPGREENPSSVLAQERGDVMDFYKTLRGGATVKVSASSPSLAVASQSDSKQRRLLVDFPKGSVSNAQQPDLSKAVSLSMGLYMGETETKVMGNDLGFPQQGQISLSSGETDLKLLEESIANLNRSTSVPENPKSSASTAVSAAPTEKEFPKTHSDVSSEQQHLKGQTGTNGGNVKLYTTDQSTFDILQDLEFSSGSPGKETNESPWRSDLLIDENCLLSPLAGEDDSFLLEGNSNEDCKPLILPDTKPKIKDNGDLVLSSPSNVTLPQVKTEKEDFIELCTPGVIKQEKLGTVYCQASFPGANIIGNKMSAISVHGVSTSGGQMYHYDMNTASLSQQQDQKPIFNVIPPIPVGSENWNRCQGSGDDNLTSLGTLNFPGRTVFSNGYSSPSMRPDVSSPPSSSSTATTGPPPKL
notes: as for B3
**Q.** Does B5 bind [5]?
**A.** Result: binds

B6: estrogen receptor alpha activation domain (ERα AD) (domain or fragment, human (from the printed UniProt entry), UniProt P03372 1-184, looked up)
chain: MTMTLHTKASGMALLHQIQGNELEPLNRPQLKIPLERPLGEVYLDSSKPAVYNYPEGAAYEFNAAAAANAQVYGQTGLPYGPGSEAAAFGSNGLGGFPPLNSVSPSPLMLLHPPPQLSPFLQPHGQQVPYYLENEPSGYTVREAGPPAFYRPNSDNRRQGGRERLASTNDKGSMAMESAKETRY
notes: as for B3
**Q.** Does B6 bind [5]?
**A.** Result: binds

B7: progesterone receptor activation domain (PR AD) (domain or fragment, human (from the printed UniProt entry), UniProt P06401 1-566, looked up)
chain: MTELKAKGPRAPHVAGGPPSPEVGSPLLCRPAAGPFPGSQTSDTLPEVSAIPISLDGLLFPRPCQGQDPSDEKTQDQQSLSDVEGAYSRAEATRGAGGSSSSPPEKDSGLLDSVLDTLLAPSGPGQSQPSPPACEVTSSWCLFGPELPEDPPAAPATQRVLSPLMSRSGCKVGDSSGTAAAHKVLPRGLSPARQLLLPASESPHWSGAPVKPSPQAAAVEVEEEDGSESEESAGPLLKGKPRALGGAAAGGGAAAVPPGAAAGGVALVPKEDSRFSAPRVALVEQDAPMAPGRSPLATTVMDFIHVPILPLNHALLAARTRQLLEDESYDGGAGAASAFAPPRSSPCASSTPVAVGDFPDCAYPPDAEPKDDAYPLYSDFQPPALKIKEEEEGAEASARSPRSYLVAGANPAAFPDFPLGPPPPLPPRATPSRPGEAAVTAAPASASVSSASSSGSTLECILYKAEGAPPQQGPFAPPPCKAPGASGCLLPRDGLPSTSASAAAAGAAPALYPALGLNGLPQLGYQAAVLKEGLPQVYPPYLNYLRPDSEASQSPQYSFESLPQKI
notes: as for B3
**Q.** Does B7 bind [5]?
**A.** Result: binds
